Target: GmPUB13(252-630) (soybean (Glycine max))
Assay: ITC

Kd: 89 nM
Substance: Avr1d (purified protein for ITC and gel filtration) (natural protein)
